Test results from patent US9115185.

What was measured:
[1] = biological target: HLA-DR1 (DRB*0101), purified from B-lymphoblastic cell line LG2.1 (human); experiment: competition with fluorescent HA308-319 on purified HLA-DR1
[2] = biological target: HLA-DR2 (DRB1*0201 [sic]), purified from B-lymphoblastic cell line IWB (human); experiment: competition with fluorescent HA308-319 on purified HLA-DR2

Substance | IC50 [1] [µM] | IC50 [2] [µM]
HPV16 E2 peptide 271-300 | 22 | 65
HPV16 E2 peptide 286-315 | 8 | –
HPV16 E2 peptide 301-330 | 6 | 8
HPV16 E2 peptide 316-345 | 6 | 55
HPV16 E2 peptide 331-365 | 8 | 20
